Patent US7704703B2, “Arf and Hdm2 interaction domains and the methods of use thereof” (St. Jude Children's Research Hospital, Inc., priority 2002, dated 2010)
Where no end group is shown, it is not given here.

What was measured:
Hdm2 210-304 [1] = target: T1, Hdm2 210-304 (Homo sapiens, UniProt Q00987); assay: Surface plasmon resonance: Arf library peptides binding to immobilized His-tagged Hdm2 210-304; conditions: 15 amino acid peptides; maximal SPR signal after binding for 10 minutes
T1 construct: poly-His (thrombin cleavable, pET28a) (cleaved yes); made in house; host or cells: E. coli BL21(DE3)
Method: Surface Plasmon Resonance. Binding studies were performed using a Biacore 3000 surface plasmon resonance (SPR) instrument (Biacore, Inc.). A Tetra-His™ Antibody (Qiagen, Inc.; Cat. #34670) was covalently attached to a carboxymethylated gold surface (C-1 chip; Biacore, Inc.). The carboxymethyl groups on the surface were activated with N-ethyl-N′-(3-dimethylaminopropyl) carbodiimide (EDC) and N-hydroxysuccinimide (NHS) and the antibody was attached at pH 7.4 in 20 mM sodium phosphate buffer, 150 mM NaCl (PBS). Reactive sites remaining on the surface were blocked by reaction with ethanolamine. […] Binding was measured by flowing the non-His-tagged analyte through the reference and ligand-containing flow cells in sequence. […] Changes in the SPR response due to solvent differences and the injection process were monitored by injection of HBS-N buffer alone. […]
Two libraries of peptides 15 amino acids in length were synthesized based on the sequence of exon 1β of mouse p19^Arf and the entire sequence of human p14^Arf. […] The ability of these peptides to bind Hdm2 fragments was determined using the surface plasmon resonance (SPR) technique with a Biacore 3000 instrument. […] Relative binding affinity was judged on the basis of the maximal SPR signal detected after binding for 10 minutes.

Hdm2 210-304 [2] = target: T1, Hdm2 210-304; assay: CD-based binding assay, induction of β-strand secondary structure with Hdm2 210-304
Method: Circular Dichroism. Spectra were recorded at 25° C. using an Aviv Model 62A DS circular dichroism spectropolarimeter (Aviv Instruments, Inc.) equipped with a thermoelectric temperature control unit. All samples were prepared in 10 mM Tris-HCl, pH 7.0 at 0.02-0.2 mM as determined by amino acid analysis. Spectra were recorded using 1 mm quartz cuvettes and reported spectra are the average of 10 scans over the range […]. Melting experiments were recorded in 10 mm quartz cuvettes with active stirring. The signal at 216 nm (β strand minimum) was used to monitor structural changes and the signal was averaged over 15 sec. The sample temperature was increased in 1° C. steps. […]
Characterization of Arf Hdm2 assemblies. […] The binding of mArfN37 to Hdm2 210-304, as monitored in this way, is saturable. […]
To investigate the roles of individual Arf motifs (A1 and A2) and Arf-binding segments of Hdm2 (H1 and H2) in the interactions between Arf and Hdm2 the binding of peptides containing these small segments (A1, A2, H1, or H2) to larger protein fragments of the corresponding binding partner (mArfN37 or Hdm2 210-304) were monitored using the CD-based binding assay. […] Peptides from the Hdm2 library that were positive for mArfN37 binding on the basis of SPR (i.e. those within H1 and H2) were mixed with mArfN37 and binding was monitored in the same manner. […]

Hdm2 210-275 = target: T2, Hdm2 210-275 (Homo sapiens, UniProt Q00987); assay: CD-based binding assay, induction of β-strand secondary structure with Hdm2 210-275
T2 construct: poly-His (thrombin cleavable, pET28a) (cleaved yes); made in house; host or cells: E. coli BL21(DE3)
Method: Circular Dichroism. Spectra were recorded at 25° C. using an Aviv Model 62A DS circular dichroism spectropolarimeter (Aviv Instruments, Inc.) equipped with a thermoelectric temperature control unit. All samples were prepared in 10 mM Tris-HCl, pH 7.0 at 0.02-0.2 mM as determined by amino acid analysis. Spectra were recorded using 1 mm quartz cuvettes and reported spectra are the average of 10 scans over the range […]. Melting experiments were recorded in 10 mm quartz cuvettes with active stirring. The signal at 216 nm (β strand minimum) was used to monitor structural changes and the signal was averaged over 15 sec. The sample temperature was increased in 1° C. steps.
β-strand secondary structure forms when Arf and Hdm2 interact. […] This structural transition is induced when mArfN37 is added to an Hdm2 fragment and when an Hdm2 fragment is added to mArfN37. […] In contrast, the uncomplexed species elute at times consistent with monodisperse, conformationally extended polypeptides. Second, NMR resonances for ^15N-mArfN37 or ^15N-Hdm2 210-304 (and ^15N-Hdm2 210-275) are broadened beyond detection when an unlabeled form of the appropriate binding partner is added to the solution. At mArfN37:Hdm2 210-304 (or mArfN37:Hdm2 210-275) molar ratios that produce maximal β-strand secondary structure based on ellipticity at 200 nm using CD, resonances cannot be observed for the isotope-labeled component of Arf/Hdm2 mixtures. Further, the NMR spectra are consistent with slow exchange between the free and bound states.
Characterization of Arf Hdm2 assemblies. As discussed above, the addition of mArfN37 to Hdm2 210-304 results in the formation of supramolecular assemblies comprised of β-strands. Stepwise addition of sub-stoichiometric amounts of mArfN37 to Hdm2 210-304 increased β-strand secondary structure content as judged by the change in ellipticity at 200 nm using CD. […] The binding of mArfN37 to Hdm2 210-304, as monitored in this way, is saturable. Similar results were obtained when mArfN37 was mixed with the shorter fragment of Hdm2, Hdm2 210-275. Further, saturable binding is also observed when the Hdm2 fragments were added to an excess of mArfN37. These findings indicate that there are a limited number of binding sites for mArfN37 within Hdm2 210-304 and that discreet structures (containing β-strands) form when mArfN37 and Hdm2 210-304 (or 210-275) are mixed. […] Similar behavior is observed when mArfN37 binds Hdm2 210-275.

T1 sequence (Q00987 210-304): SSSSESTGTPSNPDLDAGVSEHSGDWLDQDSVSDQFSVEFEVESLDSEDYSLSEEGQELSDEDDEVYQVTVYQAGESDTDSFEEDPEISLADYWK
T2 sequence (Q00987 210-275): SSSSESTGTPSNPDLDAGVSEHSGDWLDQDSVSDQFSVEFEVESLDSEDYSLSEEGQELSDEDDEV

Row | Substance | binding of Arf library peptides to Hdm2 210-304 (SPR) (Hdm2 210-304 [1]) | induction of β-strand secondary structure when mixed with Hdm2 210-304 (CD) (Hdm2 210-304 [2]) | induction of β-strand secondary structure/assembly when mixed with Hdm2 210-275 (CD) (Hdm2 210-275)
1 | human Arf peptide residues 86-100: human p14^Arf library 15-mer spanning residues 86-100, contains the NoLS RRPR (LRRPRHSHPTRARRC; UniProt Q8N726 86-100, looked up, fragment) | binds Hdm2 210-304 |  | 
2 | mouse Arf peptide residues 31-45: mouse p19^Arf library 15-mer spanning residues 31-45, contains the RRPR nucleolar localization signal (RRPRTASCALAFVNM; UniProt Q64364 31-45, looked up, fragment) | bind Hdm2 210-304 |  | 
3 | mArfN37: peptide containing the N-terminal 37 amino acids of mouse Arf (p19^Arf residues 1-37, SEQ ID NO:16) (MGRRFLVTVRIQRAGRPLQERVFLVKFVRSRRPRTAS; also: His tag; listed as Mus musculus) |  | transition from random conformations to β-strand secondary structure | transition from random conformations to β-strand secondary structure
